# Experiments:
# [1] = target: FcγRIIb (UniProt P31994); experiment: TR-FRET competition with labeled competitor antibody on cells bearing the receptor
# [2] = target: FcγRIIaH131 (human) (UniProt P12318); experiment: as above
# [3] = target: FcγRIIIaV158 (UniProt P08637); experiment: as above
# [4] = target: human recombinant CD64 (R&D Systems) (human) (UniProt P12314); experiment: SPR (Biacore T200); construct captured on Protein A, soluble CD64 as analyte
# Chain of human recombinant CD64 (R&D Systems) (human) (P12314 16-288 limits assumed): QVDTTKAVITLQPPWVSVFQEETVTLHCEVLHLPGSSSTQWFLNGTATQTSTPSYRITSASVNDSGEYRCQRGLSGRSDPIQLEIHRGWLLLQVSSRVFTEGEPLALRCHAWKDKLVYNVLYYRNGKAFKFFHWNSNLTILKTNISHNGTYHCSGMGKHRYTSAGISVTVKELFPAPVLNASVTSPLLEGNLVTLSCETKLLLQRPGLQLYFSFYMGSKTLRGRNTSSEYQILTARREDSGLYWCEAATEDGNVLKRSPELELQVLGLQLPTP
# Chain of FcγRIIaH131 (human) (P12318 34-317): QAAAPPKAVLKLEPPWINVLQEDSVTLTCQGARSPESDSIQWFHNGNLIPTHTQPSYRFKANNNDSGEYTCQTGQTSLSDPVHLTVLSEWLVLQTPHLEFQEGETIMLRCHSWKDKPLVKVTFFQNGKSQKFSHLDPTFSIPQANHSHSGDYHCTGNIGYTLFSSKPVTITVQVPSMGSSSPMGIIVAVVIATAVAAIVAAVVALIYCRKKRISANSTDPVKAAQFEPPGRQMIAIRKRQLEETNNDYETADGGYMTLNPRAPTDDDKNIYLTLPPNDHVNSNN
# Chain of FcγRIIIaV158 (P08637 17-254 F176V limits assumed): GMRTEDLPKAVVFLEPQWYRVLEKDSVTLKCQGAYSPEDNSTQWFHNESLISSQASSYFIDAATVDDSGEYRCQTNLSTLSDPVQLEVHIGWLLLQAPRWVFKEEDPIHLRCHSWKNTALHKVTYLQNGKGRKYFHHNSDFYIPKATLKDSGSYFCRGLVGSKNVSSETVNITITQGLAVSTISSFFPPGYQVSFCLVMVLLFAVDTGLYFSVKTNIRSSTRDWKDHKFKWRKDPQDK
# Chain of FcγRIIb (P31994 43-310 limits assumed): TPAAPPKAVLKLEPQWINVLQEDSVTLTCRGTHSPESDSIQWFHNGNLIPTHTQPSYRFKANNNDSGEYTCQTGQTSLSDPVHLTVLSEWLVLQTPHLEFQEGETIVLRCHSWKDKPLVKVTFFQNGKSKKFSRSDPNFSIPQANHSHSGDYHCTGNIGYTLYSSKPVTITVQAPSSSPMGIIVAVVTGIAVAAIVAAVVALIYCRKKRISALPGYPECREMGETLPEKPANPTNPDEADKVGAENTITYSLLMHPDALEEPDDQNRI
substance,measurement,setting,value
anti-CD20 monoclonal antibody (CDRs from Gazyva (obinutuzumab)),IC50,[1],3290 nM
same,IC50,[2],1270 nM
same,IC50,[3],428 nM
same,CD64 Valency by SPR,[4],1.5

# From patent US20250346676A1
